Data from patent US20050036988A1 (published 2005).

Target: the molecule itself
Experiment: western immunoblotting of rat liver after chronic CCl4 injury

B1: rat stellate cell activation-associated protein (STAP) (enzyme, UniProt Q921A4 1-190, looked up)
chain: MEKVPGDMEIERRERNEELSEAERKAVQATWARLYANCEDVGVAILVRFFVNFPSAKQYFSQFKHMEDPLEMERSPQLRKHACRVMGALNTVVENLHDPDKVSSVLALVGKAHALKHKVEPMYFKILSGVILDVIAEEFANDFPVETQKAWTKLRGLIYSHVTAAYKEVGWVQQVPNTTTLPATLPSSGP
notes: Detected in rat liver tissue lysates and sections, either endogenous or expressed from rAAV/rSTAP; Immunoblots show monomeric and dimeric forms; also called rSTAP; rat STAP
- binding result: binds
